Source: paper doi:10.1101/2021.05.10.443412 (bioRxiv, 2021)
Positions count from the first letter of the chain named.

B1: Mint3NT, N-terminal fragment (1-214) of Mint3 (domain or fragment)
chain: MDFPTISRSPSGPPAMDLEGPRDILVPSEDLTPDSQWDPMPGGPGSLSRMELDESSLQELVQQFEALPGDLVGPSPGGAPCPLHIATGHGLASQEIADAHGLLSAEAGRDDLLGLLHCEECPPSQTGPEEPLEPAPRLLQPPEDPDEDSDSPEWVEGASAEQEGSRSSSSSPEPWLETVPLVTPEEPPAGAQSPETLASYPAPQEVPGPCDHED
B2: Mint3NTmut (domain or fragment)
chain: B1 chain with G101A, L102A, L103A, E106A
B3: Mint3 (1-117) (domain or fragment)
chain: MDFPTISRSPSGPPAMDLEGPRDILVPSEDLTPDSQWDPMPGGPGSLSRMELDESSLQELVQQFEALPGDLVGPSPGGAPCPLHIATGHGLASQEIADAHGLLSAEAGRDDLLGLLH
B4: Mint3 fragment (1-92) (domain or fragment)
chain: MDFPTISRSPSGPPAMDLEGPRDILVPSEDLTPDSQWDPMPGGPGSLSRMELDESSLQELVQQFEALPGDLVGPSPGGAPCPLHIATGHGLA

Experiments:
Experiment in all cases: ITC
[1] = molecular target: FIH-1 Y71A (human, UniProt Q9NWT6 1-349, Tyr71 replaced with Ala)
[2] = molecular target: FIH-1 K75A (human, UniProt Q9NWT6 1-349, Lys75 replaced with Ala)
[3] = molecular target: FIH-1 E79A (human, UniProt Q9NWT6 1-349, Glu79 replaced with Ala)
[4] = molecular target: FIH-1 N171A (human, UniProt Q9NWT6 1-349, Asn171 replaced with Ala)
[5] = molecular target: FIH-1 E29A (human, UniProt Q9NWT6 1-349, Glu29 replaced with Ala)
[6] = molecular target: FIH-1 D248A (human, UniProt Q9NWT6 1-349, Asp248 replaced with Ala)
[7] = molecular target: FIH-1 E250A (human, UniProt Q9NWT6 1-349, Glu250 replaced with Ala)
[8] = molecular target: factor inhibiting HIF-1 (FIH-1), full-length (human, UniProt Q9NWT6 1-349)
factor inhibiting HIF-1 (FIH-1), full-length, sequence (Q9NWT6 whole entry): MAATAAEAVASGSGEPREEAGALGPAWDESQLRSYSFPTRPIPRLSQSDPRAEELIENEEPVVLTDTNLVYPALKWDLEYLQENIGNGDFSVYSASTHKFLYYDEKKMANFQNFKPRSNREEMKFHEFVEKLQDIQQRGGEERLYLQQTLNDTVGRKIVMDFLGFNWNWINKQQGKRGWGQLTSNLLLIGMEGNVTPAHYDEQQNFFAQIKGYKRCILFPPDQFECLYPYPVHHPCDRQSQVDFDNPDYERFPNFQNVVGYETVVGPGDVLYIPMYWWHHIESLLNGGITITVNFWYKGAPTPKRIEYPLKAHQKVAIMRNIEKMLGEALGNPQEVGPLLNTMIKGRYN

FIH-1 E250A, sequence (Q9NWT6 whole entry E250A): as the sequence (Q9NWT6 whole entry) above, with E250A counted along it
FIH-1 N171A, sequence (Q9NWT6 whole entry N171A): as the sequence (Q9NWT6 whole entry) above, with N171A counted along it
FIH-1 E29A, sequence (Q9NWT6 whole entry E29A): as the sequence (Q9NWT6 whole entry) above, with E29A counted along it
FIH-1 K75A, sequence (Q9NWT6 whole entry K75A): as the sequence (Q9NWT6 whole entry) above, with K75A counted along it
FIH-1 Y71A, sequence (Q9NWT6 whole entry Y71A): as the sequence (Q9NWT6 whole entry) above, with Y71A counted along it
FIH-1 E79A, sequence (Q9NWT6 whole entry E79A): as the sequence (Q9NWT6 whole entry) above, with E79A counted along it
FIH-1 D248A, sequence (Q9NWT6 whole entry D248A): as the sequence (Q9NWT6 whole entry) above, with D248A counted along it

Binder | dH [8] [kcal/mol] | stoichiometry N [8] | Kd [8] [nM] | other results
B1 | -32.2 ± 0.7 | 0.48 ± 0.02 | – | binding result [1]: binds; binding result [2]: binds; binding result [3]: binds; binding result [4]: binds; binding result [5]: binds; binding result [6]: binds; binding result [7]: binds
B2 | -13.9 | ~0.5 | 1310 | –
B3 | – | ~0.5 | 650 ± 70 | –
B4 | – | ~0.5 | – | –
SQEIADAHGLLSAEAGRDDLLGLLH [short peptide of Mint3 (93-117)] | – | ~0.5 | 3000 ± 600 | –
